Test results taken from the DeepSol protein solubility set.

Assay: soluble on expression in E. coli; label from the status in PepcDB or PDB records

Sequence | soluble on expression in E. coli
MFDLEKVQTLNELEMLVYHYVLEHLHQIPQQTIRQLATSCHVSTSTILRFCNKMGYAGFSELKYAVKEEAKQTQTFENFYDATVHVDAFLKKLNQETYYEMLRPAIQMIVQARHVAFTGIGTSGILGSYGSRYFANLNINSYSIADPFTPIPKRGFENTLALILSVSGETNEMIKQMTDFKTAGAKVLSITNNQHSTIARLADYNISYYMPDERSPFADKSVNTTTQIPVIALIELLAHQASQLLKELDETPS | not soluble
MGSDKIHHHHHHMFVEACGRLVLIRKIYGLVKVFMVKKTIRYMRISLMLTNDAIFTTRLQKGGALLDDMRQLVCQWTEAVAKPESQAGEILHKATRSRVADTYRRAFLPRFLKGSPQDAWKLARALEEAHPSIEIIRPFYYWITARAEPILYAYVTEELVEKAKTSDRAVRTEETASWINNTLRSCGRVWSPTVQLKVARGILAALRDFAILEGAVNKRLVHGHLPIETFCLIAFLLNLMGIGARELVEHSDWKLFLLAGPEVERLFFEAHQHGWLHYQAAGRVHRIEFPTNDFKDYIRVIFGTES | not soluble
MGSDKIHHHHHHMNPKKLKQLKKRVKKQAGAPYIQQLMKYRDLFKDDPQILVLINNVLESDRLLAAGLAPQQLPVLEIPDDFQDHLFERINQQYAMGDPAGDAAWNQLSAALPKVDQLLRNFRDYIEDQYGMWAYISAPFLKDLADFTGSAPVLEVMAGNGYISKGLKRLHPGQPIYTTDSKDWTHETGNQTGRHPVTTIEALDAVSAFNKYAATIKYVIMAWSPDKLTIDWDLLQAMRQSPYDIPLIVIGEKYGATGSKQFWDHANYQDNEAVTKLNAHFRPFDLIHDHVYVVR | not soluble
MGSDKIHHHHHHMNERLRQGLVAAEGPLSGEVIKDVECVAGGCIHQAWCLQLKGGRQLFAKTGGADALPMLKVEVEGLKALKAWVDPGVLEVPEPLAFDQVCGEAVLLLPWLDFRAGNQASLGRGLALLHRASAAENPGRFGWPVDGFIGAGSQPGGWREQWGDAFVTLRLRPQLREAARWGLDLVDVEPILAALIPWLDRHQPSPSLVHGDLWSGNANVLSDGRGVLLDPATWWADREVDLAMTQLFGGFSQDFYIGYENVWPLPADASQRVEVYNLYHLINHANLFGGSYRNQSQAILNRLASWLLT | not soluble
MSLEPKYQRILIKLSGEALAGEKGVGIDIPTVQAIAKEIAEVHVSGVQIALVIGGGNLWRGEPAADAGMDRVQADYTGMLGTVMNALVMADSLQHYGVDTRVQTAIPMQNVAEPYIRGRALRHLEKNRIVVFGAGIGSPYFSTDTTAALRAAEIEADAILMAKNGVDGVYNADPKKDANAVKFDELTHGEVIKRGLKIMDATASTLSMDNDIDLVVFNMNEAGNIQRVVFGEHIGTTVSNKVCDEGHHHHHH | soluble
FFSGLFQRKSDAPVTTPAELADAIGLSYDTYTGKQISSQRAMRLTAVFSCVRVLAESVGMLPCNLYHLNGSLKQRATGERLHKLISTHPNGYMTPQEFWELVVTCLCLRGNFYAYKVKAFGEVAELLPVDPGCVVYALGRCQRWPEGDRRECYSAR | soluble
MGQRSTPQQIPVVVLAGFLGSGKTTLLNHLLHRSGGSRIGAVVNDFGSIEIDAMAVAGALGDSTVSLGNGCLCCAVDASELDGYLARLARPEAGIDVIVIEASGLAEPQELVRMLLASEQPGIVYGGLVEVVDAAEFDDTRARHPEIDRHLALADLVVVNKTDRATDAERVLGLVHSLVGGAAVVPATYGRIDPEFLYDCRPGEERVGQLSFDDLHDHSEGGAHADHLHAAYDTLSFVSGLPLDPRRLMRFLDSRPKGLYRIKGYVDFGPYDTRNRYAVHAVGRFLRFYPEPWTPAGAAGGSGAPETGRTQLVLIGSGIDAAALGEELDACRRDADAPPADEHGMWGVLRYVADGEEPPDSPLEHHHHHH | not soluble
SSSLKIASTQEARQYFDTDRVVVDAVGSDFTDVGAVIAMDYETDVIDAADATKFGIPVFAVTKDAQAISADELKKIFHIIDLENKFDATVNAREIETAVNNYEDSILPPFFKSLKEYVSRYLIQFDCPGHQGGQYYRKHPAGREFYDFFGETVFRADLCNADVALGDLLIHEGPAVAAEKHAARVYNADKTYFVLGGSSNANNTVTSALVSNGDLVLFDRNNHKSVYNSALAMAGGRPVYLQTNRNPYGFIGGIYDSDFDEKKIRELAAKVDPERAKWKRPFRLAVIQLGTYDGTIYNAHEVVKRIGHLCDYIEFDSAWVGYEQFIPMMRNSSPLLIDDLGPEDPGIIVVQSVHKQQAGFSQTSQIHKKDSHIKGQLRYCDHKHFNNSFNLFMSTSPFYPMYAALDVNAAMQEGEAGRKLWHDLLITTIEARKKLIKAGSMFRPFVPPVVNGKKWEDGDTEDMANNIDYWRFEKGAKWHAYEGYGDNQYYVDPNKFMLTTPGINPETGDYEDFGVPATIVANYLRDHGIIPEKSDLNSILFLMTPAETPAKMNNLITQLLQLQRLIEEDAPLKQVLPSIYAANEERYNGYTIRELCQELHDFYKNNNTFTYQKRLFLREFFPEQGMLPYEARQEFIRNHNKLVPLNKIEGEIALEGALPYPPGVFCVAPGEKWSETAVKYFTILQDGINNFPGFAPEIQGVYFKQEGDKVVAYGEVYDAEVAKNDDRYNN | soluble
MARTVFCEYLKKEAEGLDFQLYPGELGKRIFDSVSKQAWGEWIKKQTMLVNEKKLNMMNAEHRKLLEQEMVNFLFEGKDVHIEGYVPPSN | not soluble
MIRKHSATLHGHRTSISLEDAFWDELKIIAERRKVSFAALLAEIDDSRPADSNLSSSLRVYVLNWLKTR | not soluble
MSLNIKRFVSWDCVNGIKGVLNENGKFSNNPMGVLNWIKAQTSEIPTILLVRDFHKFYDDPSISRTIKELSSSLRETNNNLILSSHILPSSEELDDLITILNLPLPDLSELTALIKKIAFNTDSDLSEQDLNELAIASSGLSEIKVKQVTAKALAQRGKISEGHHHHHH | not soluble
MAHHHHHHMMRSPFERLYHLNNRRDRDERRNKVFQLSLLERIRDRIVSGSLKEDIARKEERLRKQEEMLTSPNGVFVRLYQNSSPRRSSNAAAEGSDCKSVGEGNRDGRASVNTTGVSSQRASTARSRMSAAESQELCNRLYETAAIVKQKKEAMRKQSVEERQRQQAEELLIARLAGQIQLERSRTRASSKRRPKTPAQLEDEARAALEKLRKEDPEGYEKKVLRGRLLSPAERVMQAERLWKHGYISKAKLEAQKKVLELKKCTFQPTINEFSGSAGVAGSGETRGKGGGGTNDDKHLSAGTDRAQRHRKANRFEELYRKGIQAKVRGETLREERDREARLRILRSRMVSDHHFRRRVELDPLLAERFMKSLVV | not soluble
MEDPVTGPEEVSGQEQGSLTVQCRYTSGWKDYKKYWCQGVPQRSCKTLVETDASEQLVKKNRVSIRDNQRDFIFTVTMEDLRMSDAGIYWCGITKGGLDPMFKVTVNIGPVPT | soluble
MYEPLHRDAEQKDTAPHDPISILLLGIDERPGDKGRPDSMIVMTVNPKTKKTTMTSIPRDTRVFIKSKNKFSKMNSAYTYGGIEGTVETVEQFLNIPINYYIKINMDGFKDIVDAIGGVTVDNRIDFTLEGVHLSKGKQHLDGKTALTYARMRKDDPRGDFGRQERQREIINEIIHEGAQLKSLTNYQEILAALEKNIKTNLTLDKMIDIQSSYKEAAKDIKQVEIEGEDKKVDSLWYHLVTDEKRMEISKKLRQQLDLKSLEHHHHHH | soluble
MSLHGNSEMQKINQTSAMPEKTDVHWSGRFSVAPMLDWTDRHCRYFLRLLSRNTLLYTEMVTTGAIIHGKGDYLAYSEEEHPVALQLGGSDPAALAQCAKLAEARGYDEINLNVGCPSDRVQNGMFGACLMGNAQLVADCVKAMRDVVSIPVTVKTRIGIDDQDSYEFLCDFINTVSGKGECEMFIIHARKAWLSGLSPKENREIPPLDYPRVYQLKRDFPHLTMSINGGIKSLEEAKAHLQHMDGVMVGREAYQNPGILAAVDREIFGSSDTDADPVAVVRAMYPYIERELSQGTYLGHITRHMLGLFQGIPGARQWRRYLSENAHKAGADINVLEHALKLVADKREGHHHHHH | soluble
MGEEFEKLMKKFENVNKDGEIVEDEDEWEEFFKQEEYVKIPKDRIAVLIGKKGQTKKEIEKRTKTKITIDSETGEVWITSTKETEDPLAVWKARDIVLAIGRGFSPERAFRLLNEGEYLEIINLTDIIIGNEKNALPRVRGRIIGRKGRTRQIIEEMSGASVSVYGKTVAIIGNPIQIEIAKTAIEKLARGSPHGSVYRYLERRKKDLELEGAMYYENL | soluble
